Assay results as given in article PMC3254805.

Target: endogenous GSK3β (UniProt P49841)
Assay: anti-FoxO3a IP, GSK3β blot
Conditions: reference: HA-FoxO3a-WT; sites T32,S253,S315

## FoxO3a (RLuc- or HA-tagged constructs, WT and TM) (from UniProt O43524) HA-FoxO3a-TM (triple mutant)
  binding against the reference: stronger
